{
  "source": "the supplement of paper PMC9170038",
  "test_system": "MS2 coat protein",
  "test": "apparent KD of MS2 coat protein; designed switch direction (-1 OFF switch, 1 ON switch): 1; higher = weaker reporter binding",
  "method_in_brief": "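RNA switches sharing common flanks were transcribed by stalled E. coli RNA polymerase on Illumina chips. A doubling series of SNAP-549-labelled MS2 coat protein, from 0.7 or 1.5 nM to 3 µM, was applied in Tris-HCl pH 7.5 buffer with KCl, MgCl2, BSA, DTT, tRNA and Tween-20. Each step lasted 0.8–1.5 h at the bottom of the series and 10–20 min at the top. Normalised cluster fluorescence was curve-fitted, giving apparent KD as the per-design median over clusters.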",
  "key": {"[1]": {"conditions": "input ligand: microRNA oligo, concentration not stated"}, "[2]": {"conditions": "Eterna round: R95, input ligand: FMN 200 uM"}, "[3]": {"conditions": "Eterna round: R95, input ligand: microRNA oligo, concentration not stated"}, "[4]": {"conditions": "Eterna round: R95, input ligand: none"}},
  "data": [
    {"sequence": "AAGCUCGUGUGAGGAUAUGCCGCCGUUUCGGCUGCAGAAGGUGCUACGUUACAUGAGGAUCACCCAUGUCUCUGUUGUUUCGUA [salish99_SSNG1_r04_952] (Eterna round: R96, puzzle: Same State NG 1)", "values": [
      {"measurement": "apparent KD of MS2 coat protein", "setting": "[1]", "value": 37, "unit": "nM"}
    ]},
    {"sequence": "AAGUAGGAGUUACAGGAUAUAUGGAGGAGGACAUGAGGAUCACCCAUGUGAGAGAUGAGAGGAGGAUAGAAGGGUAAGGGAGUAA [JR_SS2_Sub027] (puzzle: Same State 2)", "values": [
      {"measurement": "apparent KD of MS2 coat protein", "setting": "[2]", "value": 24.1, "unit": "nM"},
      {"measurement": "apparent KD of MS2 coat protein", "setting": "[3]", "value": 20.9, "unit": "nM"},
      {"measurement": "apparent KD of MS2 coat protein", "setting": "[4]", "value": 32, "unit": "nM"}
    ]},
    {"sequence": "AAUUAAGAUUAAGGAUAUCACGUCGUUUAGACGUGAGAAGGUGAUCAUAACAUGAGGAUCACCCAUGUAUUACAUGAAUUAAUU [SSNG1/3-B3] (Eterna round: R96, puzzle: Same State NG 1)", "values": [
      {"measurement": "apparent KD of MS2 coat protein", "setting": "input ligand: FMN 200 uM", "value": 1040, "unit": "nM"},
      {"measurement": "apparent KD of MS2 coat protein", "setting": "[1]", "value": 284, "unit": "nM"},
      {"measurement": "apparent KD of MS2 coat protein", "setting": "input ligand: none", "value": 1190, "unit": "nM"}
    ]},
    {"sequence": "AAUUUAAUACAUGAGGAUCACCCAUGUAAUACUUGUAAGAUCAAGGAUAUCAGCUCGUUUAGAGCUGAGAAGGUGAUCACAUGU [SSNG3/19-D3] (Eterna round: R96, puzzle: Same State NG 3)", "values": [
      {"measurement": "apparent KD of MS2 coat protein", "setting": "[1]", "value": 40.7, "unit": "nM"}
    ]},
    {"sequence": "AAUUUCUAGAGAGGAUAUGCAGAGGAUCACCCUGCAGAAGGCUCGAGAGAGAGGAUAUGCAGAGGAUCACCCUGCAGAAGGCUC [pwkr ssNG DX.29] (Eterna round: R96, puzzle: Same State NG 1)", "values": [
      {"measurement": "apparent KD of MS2 coat protein", "setting": "input ligand: FMN 200 uM", "value": 14.5, "unit": "nM"},
      {"measurement": "apparent KD of MS2 coat protein", "setting": "[1]", "value": 14.7, "unit": "nM"},
      {"measurement": "apparent KD of MS2 coat protein", "setting": "input ligand: none", "value": 18.4, "unit": "nM"}
    ]},
    {"sequence": "AAUUUGGGACAUGAGGAUCACCCAUGUAUUAUAAAUGGGACAAGUUUUUUGCUCGUCUUAUACAUGGGUGAAAAUCU [Test] (puzzle: Sensor for hsa-mir-208a version 2)", "values": [
      {"measurement": "apparent KD of MS2 coat protein", "setting": "[2]", "value": 17.8, "unit": "nM"},
      {"measurement": "apparent KD of MS2 coat protein", "setting": "[3]", "value": 21.7, "unit": "nM"},
      {"measurement": "apparent KD of MS2 coat protein", "setting": "[4]", "value": 23.7, "unit": "nM"}
    ]},
    {"sequence": "ACAAGCUUUUCUGUAUUGAAAGGUGGGAUACAUGAGGAUCACCCAUGUUUGUUUGUUUAUUGUUUUCCUCGUCUUAU [JR_SHM208A_Sub089] (puzzle: Sensor for hsa-mir-208a)", "values": [
      {"measurement": "apparent KD of MS2 coat protein", "setting": "[2]", "value": 71, "unit": "nM"},
      {"measurement": "apparent KD of MS2 coat protein", "setting": "[3]", "value": 27.5, "unit": "nM"},
      {"measurement": "apparent KD of MS2 coat protein", "setting": "[4]", "value": 66.2, "unit": "nM"}
    ]},
    {"sequence": "ACAAGCUUUUUAGGAAGAGAAGAAAGGGAACAUGAGGAUCACCCAUGUAAGUGGAAUGAAGAAGGAGCACGUCUUAU [JR_SHM208A_Sub096] (puzzle: Sensor for hsa-mir-208a)", "values": [
      {"measurement": "apparent KD of MS2 coat protein", "setting": "[2]", "value": 54.2, "unit": "nM"},
      {"measurement": "apparent KD of MS2 coat protein", "setting": "[3]", "value": 17.5, "unit": "nM"},
      {"measurement": "apparent KD of MS2 coat protein", "setting": "[4]", "value": 61, "unit": "nM"}
    ]},
    {"sequence": "ACAUGAGACCGAGGAUAUAUUGUACCUACAUGUGACAUGAGGAUCACCCAUGUGGUAAGUAUGACAUAGAAGGCGGAGAUAUGU [Equivalance 92 - Jieux - Same State NG 2] (Eterna round: R96, puzzle: Same State NG 2)", "values": [
      {"measurement": "apparent KD of MS2 coat protein", "setting": "input ligand: FMN 200 uM", "value": 19.6, "unit": "nM"},
      {"measurement": "apparent KD of MS2 coat protein", "setting": "[1]", "value": 25.9, "unit": "nM"},
      {"measurement": "apparent KD of MS2 coat protein", "setting": "input ligand: none", "value": 30.1, "unit": "nM"}
    ]},
    {"sequence": "ACAUGAGACUCAGGAUAUCAUGUACCUACAUGUGACAUGAGGAUCACCCAUGUGGUAAGUAUGACUGAGAAGGGAGAGAUAUGU [Equivalance 88 - Jieux - Same State NG 2] (Eterna round: R96, puzzle: Same State NG 2)", "values": [
      {"measurement": "apparent KD of MS2 coat protein", "setting": "input ligand: FMN 200 uM", "value": 63.7, "unit": "nM"},
      {"measurement": "apparent KD of MS2 coat protein", "setting": "[1]", "value": 159, "unit": "nM"},
      {"measurement": "apparent KD of MS2 coat protein", "setting": "input ligand: none", "value": 248, "unit": "nM"}
    ]},
    {"sequence": "ACAUGAGACUCAGGAUAUCUUGUACCUACAUGUGACAUGAGGAUCACCCAUGUGGUAAGUAUGACAGAGAAGGGAGAGAUAUGU [Equivalance 87 - Jieux - Same State NG 2] (Eterna round: R96, puzzle: Same State NG 2)", "values": [
      {"measurement": "apparent KD of MS2 coat protein", "setting": "input ligand: FMN 200 uM", "value": 26.7, "unit": "nM"},
      {"measurement": "apparent KD of MS2 coat protein", "setting": "[1]", "value": 47.2, "unit": "nM"},
      {"measurement": "apparent KD of MS2 coat protein", "setting": "input ligand: none", "value": 64.1, "unit": "nM"}
    ]},
    {"sequence": "ACAUGAGAGAAAGGAUAUCUUGUACCUACAUGUGACAUGAGGAUCACCCAUGUGGUAAGUAUGACGGAGAAGGUUCAGAUAUGU [Equivalance 72 - Jieux - Same State NG 2] (Eterna round: R96, puzzle: Same State NG 2)", "values": [
      {"measurement": "apparent KD of MS2 coat protein", "setting": "input ligand: FMN 200 uM", "value": 77.1, "unit": "nM"},
      {"measurement": "apparent KD of MS2 coat protein", "setting": "[1]", "value": 125, "unit": "nM"},
      {"measurement": "apparent KD of MS2 coat protein", "setting": "input ligand: none", "value": 154, "unit": "nM"}
    ]},
    {"sequence": "ACAUGAGAGAUAGGAUAUGUUGUACCUACAUGUGACAUGAGGAUCACCCAUGUGGUAAGUAUGAGGCAGAAGGAUCAGAUAUGU [Equivalence 41 - Jieux - Same State NG 2] (Eterna round: R96, puzzle: Same State NG 2)", "values": [
      {"measurement": "apparent KD of MS2 coat protein", "setting": "input ligand: FMN 200 uM", "value": 29.2, "unit": "nM"},
      {"measurement": "apparent KD of MS2 coat protein", "setting": "[1]", "value": 68.1, "unit": "nM"},
      {"measurement": "apparent KD of MS2 coat protein", "setting": "input ligand: none", "value": 88.1, "unit": "nM"}
    ]},
    {"sequence": "ACAUGAGAGUGAGGAUAUACUGUACCUACAUGUGACAUGAGGAUCACCCAUGUGGUAAGUAUGACGUAGAAGGCACAGAUAUGU [Equivalance 79 - Jieux - Same State NG 2] (Eterna round: R96, puzzle: Same State NG 2)", "values": [
      {"measurement": "apparent KD of MS2 coat protein", "setting": "input ligand: FMN 200 uM", "value": 33.1, "unit": "nM"},
      {"measurement": "apparent KD of MS2 coat protein", "setting": "[1]", "value": 118, "unit": "nM"},
      {"measurement": "apparent KD of MS2 coat protein", "setting": "input ligand: none", "value": 182, "unit": "nM"}
    ]},
    {"sequence": "ACAUGAGGAUCACCCAUGUAUGCUCAGGAAACUGUGCAUCGUGAGGAUAUGGAUCCUAAUUGGAUCCAGAAGGCAUGUAUUAUU [Fiskers NG3ss - 27] (Eterna round: R96, puzzle: Same State NG 3)", "values": [
      {"measurement": "apparent KD of MS2 coat protein", "setting": "input ligand: FMN 200 uM", "value": 321, "unit": "nM"},
      {"measurement": "apparent KD of MS2 coat protein", "setting": "[1]", "value": 23.9, "unit": "nM"},
      {"measurement": "apparent KD of MS2 coat protein", "setting": "input ligand: none", "value": 153, "unit": "nM"}
    ]},
    {"sequence": "ACAUGAGGAUCACCCAUGUCGGAUAAGGAAACGACCACGUGGGAGGAUAUUGUAACGCGUCUGUACGAGAAGGCCCAUUCCAGU [Eternabot solution 42] (Eterna round: R96, puzzle: Same State NG 3)", "values": [
      {"measurement": "apparent KD of MS2 coat protein", "setting": "input ligand: FMN 200 uM", "value": 29.2, "unit": "nM"},
      {"measurement": "apparent KD of MS2 coat protein", "setting": "[1]", "value": 66.8, "unit": "nM"},
      {"measurement": "apparent KD of MS2 coat protein", "setting": "input ligand: none", "value": 80.8, "unit": "nM"}
    ]}
  ]
}
